Test results reported in US20200283508A1.

Assays:
human fibrinogen (human) [1] = biological target: human fibrinogen (human) (UniProt P02671); assay: ELISA, GST-tagged fragment on immobilized Fg
human fibrinogen (human) [2] = biological target: human fibrinogen (human) (UniProt P02671); assay: ELISA on coated Fg; Km = protein concentration at half of the maximum; R2 0.986
human fibrinogen (human) [3] = biological target: human fibrinogen (human) (UniProt P02671); assay: ELISA on coated Fg; Km = protein concentration at half of the maximum; R2 0.991
human fibrinogen (human) [4] = biological target: human fibrinogen (human) (UniProt P02671); assay: ELISA, GST-tagged fragment on immobilized Fg; apparent affinity
human fibrinogen (human) [5] = biological target: human fibrinogen (human) (UniProt P02671); assay: solid phase binding assay, Efb coated, Fg titrated; apparent KD; Efb coated on the well, fibrinogen titrated
human fibrinogen (human) [6] = biological target: human fibrinogen (human) (UniProt P02671); assay: ELISA on coated Fg; Km = protein concentration at half of the maximum; R2 0.995
[7] = biological target: Fibrinogen-D fragment (human) (UniProt P02671); assay: ITC (VP-ITC), peptide titrated into 10 µM Fg-D, one-site model
human fibrinogen (human) [8] = biological target: human fibrinogen (human) (UniProt P02671); assay: competition ELISA on coated Fg; competitor 4 nM rCoa-C GST fusion
[9] = biological target: Fibrinogen-D fragment (human) (UniProt P02671); assay: isothermal titration calorimetry, peptide into 10 µM Fg-D, one-site model
[10] = biological target: Fibrinogen-D fragment (human) (UniProt P02671); assay: ITC (VP-ITC), fit box Model: OneSites beside the isotherm
[11] = biological target: Fibrinogen-D fragment (human) (UniProt P02671); assay: ITC (VP-ITC), fit box Model: OneSites beside the isotherm; unit not given
human fibrinogen (human) [12] = biological target: human fibrinogen (human) (UniProt P02671); assay: competition ELISA on coated Fg; competitor 2 nM rEfb-N GST fusion
human fibrinogen (human) [13] = biological target: human fibrinogen (human) (UniProt P02671); assay: competition ELISA on coated Fg; competitor 2 nM rCoa-C GST fusion

Chain of Fibrinogen-D fragment (human) (P02671 130-216 limits assumed, chain 1 of 3): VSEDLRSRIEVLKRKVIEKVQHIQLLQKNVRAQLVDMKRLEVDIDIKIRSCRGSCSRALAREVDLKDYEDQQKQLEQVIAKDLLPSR
Chain of Fibrinogen-D fragment (human) (P02675 164-491 limits assumed, chain 2 of 3, further chain): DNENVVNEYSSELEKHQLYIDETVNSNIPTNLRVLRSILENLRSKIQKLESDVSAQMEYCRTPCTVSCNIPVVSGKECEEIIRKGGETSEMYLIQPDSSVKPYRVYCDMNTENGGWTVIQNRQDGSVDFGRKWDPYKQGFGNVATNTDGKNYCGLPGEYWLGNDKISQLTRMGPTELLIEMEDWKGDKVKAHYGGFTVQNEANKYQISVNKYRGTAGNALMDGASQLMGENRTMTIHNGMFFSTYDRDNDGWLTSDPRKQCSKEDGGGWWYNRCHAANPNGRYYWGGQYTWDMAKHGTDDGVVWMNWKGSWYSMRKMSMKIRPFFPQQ
Chain of Fibrinogen-D fragment (human) (P02679 114-432 limits assumed, chain 3 of 3, further chain): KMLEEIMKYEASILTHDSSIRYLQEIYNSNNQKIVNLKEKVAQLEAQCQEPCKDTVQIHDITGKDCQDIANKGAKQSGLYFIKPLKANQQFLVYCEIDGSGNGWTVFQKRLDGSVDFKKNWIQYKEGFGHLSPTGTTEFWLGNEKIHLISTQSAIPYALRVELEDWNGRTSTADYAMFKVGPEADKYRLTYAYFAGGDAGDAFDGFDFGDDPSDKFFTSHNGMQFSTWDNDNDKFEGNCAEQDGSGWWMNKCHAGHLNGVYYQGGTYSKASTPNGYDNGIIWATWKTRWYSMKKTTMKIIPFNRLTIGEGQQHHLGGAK
Chain of human fibrinogen (human) (P02671 20-629 limits assumed, form in doubt, chain 1 of 3): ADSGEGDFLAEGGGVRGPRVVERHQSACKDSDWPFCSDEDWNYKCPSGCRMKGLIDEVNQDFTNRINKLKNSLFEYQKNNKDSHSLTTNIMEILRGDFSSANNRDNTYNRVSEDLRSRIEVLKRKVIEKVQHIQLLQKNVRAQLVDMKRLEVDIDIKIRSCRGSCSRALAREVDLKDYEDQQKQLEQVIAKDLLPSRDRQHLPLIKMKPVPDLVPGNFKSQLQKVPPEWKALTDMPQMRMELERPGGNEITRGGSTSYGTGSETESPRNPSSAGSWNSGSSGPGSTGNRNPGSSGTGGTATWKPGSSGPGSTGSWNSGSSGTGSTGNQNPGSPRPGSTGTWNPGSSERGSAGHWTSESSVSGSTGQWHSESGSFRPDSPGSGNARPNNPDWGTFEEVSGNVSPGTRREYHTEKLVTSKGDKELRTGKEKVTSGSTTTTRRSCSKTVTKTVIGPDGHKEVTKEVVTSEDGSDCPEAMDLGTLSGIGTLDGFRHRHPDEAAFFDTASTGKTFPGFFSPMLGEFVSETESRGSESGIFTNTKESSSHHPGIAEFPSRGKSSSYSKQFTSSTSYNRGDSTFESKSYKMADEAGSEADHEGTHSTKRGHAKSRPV
Chain of human fibrinogen (human) (P02675 31-491 limits assumed, form in doubt, chain 2 of 3, further chain): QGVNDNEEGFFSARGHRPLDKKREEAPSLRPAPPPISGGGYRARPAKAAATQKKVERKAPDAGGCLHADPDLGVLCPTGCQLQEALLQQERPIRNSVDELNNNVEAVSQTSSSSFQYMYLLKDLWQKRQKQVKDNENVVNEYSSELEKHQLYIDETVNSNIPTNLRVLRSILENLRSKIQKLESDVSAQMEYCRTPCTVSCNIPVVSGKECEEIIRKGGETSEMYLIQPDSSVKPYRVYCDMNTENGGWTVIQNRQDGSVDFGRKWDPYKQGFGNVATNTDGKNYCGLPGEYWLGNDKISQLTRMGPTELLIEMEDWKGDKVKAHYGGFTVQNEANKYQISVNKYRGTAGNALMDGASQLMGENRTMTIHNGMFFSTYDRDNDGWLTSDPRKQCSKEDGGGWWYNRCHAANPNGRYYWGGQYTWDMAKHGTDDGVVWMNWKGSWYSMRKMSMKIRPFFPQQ
Chain of human fibrinogen (human) (P02679 27-453 limits assumed, form in doubt, chain 3 of 3, further chain): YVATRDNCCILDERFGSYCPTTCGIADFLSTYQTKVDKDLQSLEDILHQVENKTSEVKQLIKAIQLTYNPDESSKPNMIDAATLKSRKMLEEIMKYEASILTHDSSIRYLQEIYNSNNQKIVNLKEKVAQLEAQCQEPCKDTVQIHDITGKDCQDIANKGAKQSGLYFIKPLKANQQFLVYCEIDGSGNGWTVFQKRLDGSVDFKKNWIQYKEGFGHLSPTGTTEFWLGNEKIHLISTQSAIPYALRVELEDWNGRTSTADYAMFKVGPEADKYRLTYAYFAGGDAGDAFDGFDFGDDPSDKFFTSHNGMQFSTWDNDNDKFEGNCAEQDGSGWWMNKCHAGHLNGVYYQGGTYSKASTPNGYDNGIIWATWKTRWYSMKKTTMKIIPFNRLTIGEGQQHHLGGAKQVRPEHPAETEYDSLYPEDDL

“Coa-C (Coa 311-636) (from UniProt P08515 1-218)” showed an EC50 (human fibrinogen (human) [1]) of 7.5 nM.

“Coa-F (Coa 311-505) (from UniProt P08515 1-218)” gave a Km (human fibrinogen (human) [2]) of 3.2 nM.

Work on “Coa-N (Coa 27-310) (from UniProt P08515 1-218)” yielded a Km (human fibrinogen (human) [3]) of 204 nM.

Coa-R (Coa 506-636) showed a Kd (human fibrinogen (human) [4]) of 0.8 nM.

“Extracellular fibrinogen binding protein (Efb), full-length secreted form 30-165, His-tagged (from UniProt A6QG59 30-165)” was tested, and the Kd (human fibrinogen (human) [5]) was 1 nM.

With “recombinant Coagulase, Coa (27-636) (from UniProt P08515 1-218)” the Km (human fibrinogen (human) [6]) was 8.9 nM.

sCoa-RI3 (Coa 502-528) (peptide) gave a N (binding ratio) [7] of 0.9, an IC50 (read off the curve) (human fibrinogen (human) [8]) of 10000 nM and a Kd [9] of 124 nM.

Substance sCoa-RV1 (Coa 610-636) (peptide) has a N (binding ratio) [10] of 0.679, a N (binding ratio) [7] of 0.68 and an IC50 (read off the curve) (human fibrinogen (human) [8]) of 10000 nM. It also gave a Kd [9] of 139 nM, a ΔH [11] of -39800 and a ΔS [11] of -101.

In the case of synthetic peptide Coa-O (Coa 474-505), the IC50 (read off the curve) (human fibrinogen (human) [12]) is reported as 2000 to 3000 nM and the IC50 (read off the curve) (human fibrinogen (human) [13]) is reported as 9000 nM.

Substance synthetic peptide Coa-RI (Coa 506-532) has an IC50 (read off the curve) (human fibrinogen (human) [13]) of 3000 nM and a binding stoichiometry [9] of 0.93.
